Where a chain is given by its changes, count along the chain named.
What was measured:
Assay in all cases: cleavage_in_vitro
[1] = tested on: T1, SphI-HF K100A (Streptomyces phaeochromogenes); details: NEB4, 37 C, Mg2+
T1 sequence: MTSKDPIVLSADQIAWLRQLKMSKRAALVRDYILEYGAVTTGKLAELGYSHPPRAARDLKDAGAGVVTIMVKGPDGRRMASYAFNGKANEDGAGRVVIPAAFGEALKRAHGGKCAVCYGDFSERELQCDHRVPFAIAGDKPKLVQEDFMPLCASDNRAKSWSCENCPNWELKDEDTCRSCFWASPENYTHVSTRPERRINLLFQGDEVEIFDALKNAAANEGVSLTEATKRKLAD

[2] = biological target: T2, PstI (Providencia stuartii 164) (UniProt P00640); details: NEB4, 37 C, Mg2+
T2 sequence: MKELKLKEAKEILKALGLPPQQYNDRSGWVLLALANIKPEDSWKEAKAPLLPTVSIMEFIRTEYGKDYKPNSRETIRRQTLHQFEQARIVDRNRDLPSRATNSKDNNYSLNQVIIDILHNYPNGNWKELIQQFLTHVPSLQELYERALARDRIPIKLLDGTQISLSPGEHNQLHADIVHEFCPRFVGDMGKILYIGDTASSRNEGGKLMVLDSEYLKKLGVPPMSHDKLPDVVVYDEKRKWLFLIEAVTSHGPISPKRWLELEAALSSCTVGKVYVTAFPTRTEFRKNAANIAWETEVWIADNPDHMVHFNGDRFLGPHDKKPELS

[3] = tested on: T3, SbfI-HF K251A (Streptomyces species Bf-61?); details: NEB4, 37 C, Mg2+
T3 sequence: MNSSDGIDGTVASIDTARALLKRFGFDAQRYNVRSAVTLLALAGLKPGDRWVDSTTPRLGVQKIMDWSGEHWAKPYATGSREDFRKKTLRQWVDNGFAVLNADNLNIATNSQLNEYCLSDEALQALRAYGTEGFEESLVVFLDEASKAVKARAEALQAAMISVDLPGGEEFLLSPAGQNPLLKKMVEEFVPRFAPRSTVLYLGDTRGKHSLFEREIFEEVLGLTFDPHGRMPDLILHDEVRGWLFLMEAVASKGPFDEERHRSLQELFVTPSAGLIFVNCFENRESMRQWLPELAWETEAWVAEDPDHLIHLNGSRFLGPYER

[4] = tested on: T4, SbfI (Streptomyces species Bf-61?); details: NEB4, 37 C, Mg2+
T4 sequence: T3 sequence with A251K

[5] = tested on: T5, BsmBI (Bacillus stearothermophilus); details: NEB4, 55 C, Mg2+
T5 sequence: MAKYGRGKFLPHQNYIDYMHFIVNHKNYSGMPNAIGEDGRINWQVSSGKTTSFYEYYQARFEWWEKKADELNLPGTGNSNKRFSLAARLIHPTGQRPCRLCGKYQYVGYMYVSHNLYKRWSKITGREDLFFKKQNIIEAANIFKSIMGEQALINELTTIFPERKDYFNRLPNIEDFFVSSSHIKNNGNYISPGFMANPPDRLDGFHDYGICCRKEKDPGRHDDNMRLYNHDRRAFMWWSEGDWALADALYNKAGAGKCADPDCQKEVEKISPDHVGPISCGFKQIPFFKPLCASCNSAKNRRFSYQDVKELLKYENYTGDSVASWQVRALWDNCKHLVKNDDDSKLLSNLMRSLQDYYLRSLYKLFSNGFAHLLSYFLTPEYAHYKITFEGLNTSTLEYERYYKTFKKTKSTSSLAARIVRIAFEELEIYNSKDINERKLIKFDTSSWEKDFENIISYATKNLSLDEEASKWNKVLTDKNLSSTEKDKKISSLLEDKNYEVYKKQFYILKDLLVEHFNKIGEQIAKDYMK

[6] = tested on: T6, BsmBI-HF N185Y/R232A (Bacillus stearothermophilus); details: NEB4, 55 C, Mg2+
T6 sequence: T5 sequence with N185Y, R232A

[7] = biological target: T7, BamHI (Bacillus amyloliquefaciens) (UniProt P23940); details: NEB4, 37 C, Mg2+
T7 sequence: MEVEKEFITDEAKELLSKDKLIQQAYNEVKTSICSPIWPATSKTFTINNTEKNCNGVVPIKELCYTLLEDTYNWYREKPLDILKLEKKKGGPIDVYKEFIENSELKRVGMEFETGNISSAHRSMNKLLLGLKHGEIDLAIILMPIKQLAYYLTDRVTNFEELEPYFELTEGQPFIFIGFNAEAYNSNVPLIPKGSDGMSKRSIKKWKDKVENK

[8] = tested on: T8, SphI (Streptomyces phaeochromogenes); details: NEB4, 37 C, Mg2+
T8 sequence: T1 sequence with A100K

Substance: lambda DNA
- activity (fidelity index) [1]: 8000
- activity (fidelity index) [2]: 8
- activity (fidelity index) [3]: 250
- activity (fidelity index) [4]: 8
- activity (fidelity index) [5]: 4
- activity (fidelity index) [6]: > 500
- activity (fidelity index) [7]: 4
- activity (fidelity index) [8]: 16
